The values that follow come from patent CN114907482A.

Where a chain is given by its changes, count along the chain named.

This test concerns the target 人Claudin18.2 (human) (UniProt P56856). The test can be described thus: cell-based or functional assay.

B1: 鼠单抗1B10 (antibody, V domains shown)
VH: QVQLKESGPGLVAPSQSLSITCTVSGFSLTSYVINWVRQPPGKGLEWLGVIWTGGGTNYNSALKSRLSISKDTSKSQVFLKMNSLQTDDTARYYCARGAYYGNAMDYWGQGTSVTVSS
VL: DIVMTQSPSSLTVTAGEKVTMSCKSSQSLLNSGNQKNYLTWYQQKPGQPPKLLIYWAATRESGVPDRFTGSGSGTDFTLTISSVQAEDLAVYYCQNDYSYPFTFGSGTKLEIK
Turning to B1, the 活细胞比率 (CDC, 20%人血浆, 30min, 293T-hClaudin18.2细胞; 无抗体对照81.34%) came to 34%.

B2: 鼠单抗1A6 (antibody, V domains shown)
VH: QVQLQQPGAELVKPGASVKLSCKASGYTFTSYWMQWVKQRPGQGLEWIGMTHPNSGGTNYNEKFKSKATLTVDKSSSTAYMQLSSLTSEDSAVYYCARLGRGNAMDYWGQGTSVTVSS
VL: B1 VL with A58S, E61K, A90T, V91I
B2 gave a 活细胞比率 (CDC, 20%人血浆, 30min, 293T-hClaudin18.2细胞; 无抗体对照81.34%) of 3.94%.
